Measurements reported in US20130287781A1 (GlaxoSmithKline, published 2013).
Where two headings read alike, the source gives them in different places.

T1: peptide 7 (biotin-SGSG-VLPDIVMEAPLNSAVP) (human, N-terminal biotin)
T1 peptide: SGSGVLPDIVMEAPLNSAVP

T2: peptide 6 (biotin-SGSG-TPSPVLPDIVMEAPLN) (human, N-terminal biotin)
T2 peptide: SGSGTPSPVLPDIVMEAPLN


How the values were obtained:
[1] = target: T3, Rat NOGO (A56) plus GST tag (rat); assay: SPR (Biacore), reverse format: antibody captured by Protein A
T3 construct: also called GST-NOGO-A56 from rat
T3 sequence (chain, as listed by the source limits assumed): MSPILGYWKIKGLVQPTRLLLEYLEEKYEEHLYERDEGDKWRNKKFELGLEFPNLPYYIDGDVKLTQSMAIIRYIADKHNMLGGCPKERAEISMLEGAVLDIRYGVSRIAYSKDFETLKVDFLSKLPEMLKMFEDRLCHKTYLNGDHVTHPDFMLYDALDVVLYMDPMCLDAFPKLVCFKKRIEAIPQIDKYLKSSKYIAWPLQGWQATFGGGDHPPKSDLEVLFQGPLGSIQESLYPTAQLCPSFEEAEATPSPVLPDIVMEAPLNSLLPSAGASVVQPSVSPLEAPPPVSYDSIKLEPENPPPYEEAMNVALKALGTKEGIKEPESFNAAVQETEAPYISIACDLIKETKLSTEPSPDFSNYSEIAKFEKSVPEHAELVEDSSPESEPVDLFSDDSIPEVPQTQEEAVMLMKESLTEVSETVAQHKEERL
From the text: (§1) Protein A was immobilised on the surface at about 4000RUs and anti-Nogo-A antibodies were captured at approximately 300-400RUs. […] All the runs were done in duplicates. The values show the mean and standard deviation (in brackets) of 1-3 independent runs with each run done in duplicate and each data set analysed independently prior to calculation of the mean and standard deviation.

[2] = target: T4, Cynomolgus monkey NOGO (A56) plus GST tag (cynomolgus monkey); assay: as above
T4 construct: also called cynomolgus Nogo-A; GST-NOGO-A56 from cynomolgus
T4 sequence (chain, as listed by the source limits assumed): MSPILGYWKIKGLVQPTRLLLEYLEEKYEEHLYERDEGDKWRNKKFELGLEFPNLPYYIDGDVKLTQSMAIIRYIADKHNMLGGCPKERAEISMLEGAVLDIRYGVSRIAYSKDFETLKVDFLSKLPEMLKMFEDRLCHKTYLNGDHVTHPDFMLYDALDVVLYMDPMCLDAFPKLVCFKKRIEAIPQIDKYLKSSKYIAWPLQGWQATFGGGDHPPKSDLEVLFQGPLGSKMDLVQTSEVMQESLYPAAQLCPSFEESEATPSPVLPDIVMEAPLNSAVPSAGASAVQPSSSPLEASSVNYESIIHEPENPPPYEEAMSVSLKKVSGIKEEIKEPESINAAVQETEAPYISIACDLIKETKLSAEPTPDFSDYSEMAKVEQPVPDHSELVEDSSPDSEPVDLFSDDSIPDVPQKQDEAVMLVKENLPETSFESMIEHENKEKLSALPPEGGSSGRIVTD
From the text: as §1

GST-human NOGO-A56 [3] = target: T5, GST-human NOGO-A56 (human); assay: competition ELISA on coated GST-Nogo-A 5+6; competitor 2A10 pre-mixed, bound 2A10 detected with anti-mouse IgG-HRP
T5 construct: Expressed in E. coli BL21 from pGEX-6P1 and purified on glutathione-sepharose; the GST tag is part of the protein in the assays; also called GST-Nogo-A 5+6; GST Nogo-A 5 + 6
T5 sequence (chain, as listed by the source limits assumed): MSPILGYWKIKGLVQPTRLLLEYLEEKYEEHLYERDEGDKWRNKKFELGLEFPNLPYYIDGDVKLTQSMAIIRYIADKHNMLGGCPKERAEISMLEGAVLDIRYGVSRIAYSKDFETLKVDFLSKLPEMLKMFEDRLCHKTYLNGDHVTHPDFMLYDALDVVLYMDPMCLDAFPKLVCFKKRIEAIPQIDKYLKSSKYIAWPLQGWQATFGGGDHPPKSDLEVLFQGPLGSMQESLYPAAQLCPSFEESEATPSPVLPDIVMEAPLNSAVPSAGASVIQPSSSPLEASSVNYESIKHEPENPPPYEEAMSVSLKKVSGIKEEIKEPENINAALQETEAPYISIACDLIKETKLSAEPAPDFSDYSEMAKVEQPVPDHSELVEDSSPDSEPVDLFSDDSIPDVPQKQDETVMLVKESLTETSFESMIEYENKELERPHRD

GST-human NOGO-A56 [4] = target: T5, GST-human NOGO-A56; assay: as above; remark: listed apart in the source
From the text: Recombinant human Nogo-A (GST-Nogo-A 5+6) was coated to the plates. […] IC50 values were derived using Robosage.

Human C1q (Sigma, C0660) = target: T6, Human C1q (Sigma, C0660) (human, UniProt P02745 23-245; P02746 28-253; P02747 29-245); assay: C1q ELISA: antibody coated at 1 mcg/ml, human C1q added, anti-human C1q-HRP, Abs490
T6 construct: Bought protein
T6 sequence (P02745 23-245 limits assumed, chain 1 of 3): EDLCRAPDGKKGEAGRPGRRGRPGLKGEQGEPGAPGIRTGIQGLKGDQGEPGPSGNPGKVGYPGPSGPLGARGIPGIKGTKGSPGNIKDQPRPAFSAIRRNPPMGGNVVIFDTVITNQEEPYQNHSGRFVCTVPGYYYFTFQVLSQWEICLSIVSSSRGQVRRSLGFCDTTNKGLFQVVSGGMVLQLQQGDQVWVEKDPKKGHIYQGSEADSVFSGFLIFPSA
T6 sequence (P02746 28-253 limits assumed, chain 2 of 3): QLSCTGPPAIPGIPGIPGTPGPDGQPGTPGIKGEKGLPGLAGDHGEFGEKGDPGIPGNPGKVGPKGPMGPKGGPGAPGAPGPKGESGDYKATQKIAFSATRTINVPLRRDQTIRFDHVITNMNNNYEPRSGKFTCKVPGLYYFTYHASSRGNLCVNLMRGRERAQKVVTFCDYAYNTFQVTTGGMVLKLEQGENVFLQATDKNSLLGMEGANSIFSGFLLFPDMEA
T6 sequence (P02747 29-245 limits assumed, chain 3 of 3): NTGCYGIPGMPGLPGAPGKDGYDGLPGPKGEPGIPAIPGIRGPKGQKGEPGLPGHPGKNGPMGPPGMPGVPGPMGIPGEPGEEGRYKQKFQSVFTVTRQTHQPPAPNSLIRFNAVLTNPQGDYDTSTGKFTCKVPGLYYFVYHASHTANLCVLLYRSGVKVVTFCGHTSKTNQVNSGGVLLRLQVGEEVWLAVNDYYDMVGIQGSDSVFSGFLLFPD
From the text: ELISA plates were coated with a fixed concentration of the purified humanised and control antibodies (1 mcg/ml).

[5] = target: T1, peptide 7 (biotin-SGSG-VLPDIVMEAPLNSAVP); assay: peptide ELISA: biotinylated 16-mer peptide on streptavidin, antibody at 5 ug/ml, kappa-chain peroxidase conjugate, Abs490
Method: (§2) Streptavidin at 5 μg/ml in sterile water was coated onto Nunc immunosorp plates (100 μl per well) at 37° C. overnight. The plates were rinsed 3 times with PBS containing 0.05% Tween (PBST) then blocked with 3% BSA in PBST at 4° C. overnight. The plates were washed 3 times with PBST. Peptides were then added to the wells at a concentration of approximately 10 μg/ml (diluted in 3% BSA in PBST) and incubated at room temperature for 1 hour. The plates were washed 3 times with PBST then incubated for 1 hour with anti-NOGO antibodies diluted to 5 μg/ml in 3% BSA in PBST. […] The plates were washed 3 times with PBST and then incubated with 100 μl OPD peroxidase substrate (Sigma) per well for 10 minutes. The colour reaction was stopped by the addition of 50 μl 3 molar H₂SO₄. Absorbance at 490 nm was measured using a plate reader.

[6] = target: T2, peptide 6 (biotin-SGSG-TPSPVLPDIVMEAPLN); assay: as above
Method: as §2

GST-human NOGO-A56 [7] = target: T5, GST-human NOGO-A56; assay: SPR (Biacore T100), antigen amine-coupled to CM5, antibody 0.125-8 nM; mean of six runs in duplicate (SD in brackets)
From the text: In the first approach, the recombinant Nogo-A was coupled to the surface of the chip and anti-Nogo-A antibodies passed over this surface. In the second approach, Protein A was used to capture the antibody onto the surface of the chip over which the recombinant GST-human Nogo-A56 was passed.
The antigen was bound to the CM5 chip by primary amine coupling. […] The values show the mean and standard deviation (in brackets) of six independent runs carried out in duplicate. Each completed data set was analysed independently prior to the calculation of mean and standard deviation.

GST-human NOGO-A56 [8] = target: T5, GST-human NOGO-A56; assay: SPR (Biacore), GST-human NOGO-A56 amine-coupled to CM5, antibody flowed over, 37 C
Method: (§3) GST-human NOGO-A56 was immobilised to a CM5 chip by primary amine coupling using the Biacore Wizard program designed for targeted immobilisation levels. The CM5 sensor surface was activated by passing a solution of 50 mM N-hydroxy-succinimide (NHS) and 200 mM N-ethyl-N′-dimethylaminopropyl carbonide (EDC). Then GST-human NOGO-A56 in sodium acetate buffer, pH5.0 or pH 4.5, was passed over the chip and immobilised. After immobilisation was complete any still activated esters were blocked by an injection of 1M ethanolamine hydrochloride, pH8.5.
(§4) The anti-NOGO mAbs were diluted down in HBS-EP (10 mM HEPES, pH 7.4, 150 mM NaCl, 3 mM EDTA, and 0.005% P-20 surfactant) for the BIAcore 3000 or HBS-EP+ (10 mM HEPES, pH 7.4, 150 mM NaCl, 3 mM EDTA, and 0.05% P-20 surfactant) in the case of the T100 and binding studies were carried out at range of defined antibody concentrations. All runs were referenced against a blanked sensor surface (one that had been activated and blocked as described earlier but had no addition of ligand). Analysis of binding was carried out using the BIAevaluation kinetic analysis software version 4.1 for the BIAcore 3000 and T100 kinetic analysis software version 1.0. […] Unless otherwise stated, the BIAcore experiments were performed at 25° C.

GST-human NOGO-A56 [9] = target: T5, GST-human NOGO-A56; assay: SPR (Biacore), GST-human NOGO-A56 amine-coupled to CM5, antibody flowed over, 25 C
Method: as §3, §4

[10] = target: T7, Squirrel monkey NOGO (A56) plus GST tag (squirrel monkey); assay: SPR (Biacore), reverse format: antibody captured by Protein A; end of the range tied to squirrel monkey by Table 19
T7 construct: also called GST-NOGO-A56 from squirrel monkey
T7 sequence (chain, as listed by the source limits assumed): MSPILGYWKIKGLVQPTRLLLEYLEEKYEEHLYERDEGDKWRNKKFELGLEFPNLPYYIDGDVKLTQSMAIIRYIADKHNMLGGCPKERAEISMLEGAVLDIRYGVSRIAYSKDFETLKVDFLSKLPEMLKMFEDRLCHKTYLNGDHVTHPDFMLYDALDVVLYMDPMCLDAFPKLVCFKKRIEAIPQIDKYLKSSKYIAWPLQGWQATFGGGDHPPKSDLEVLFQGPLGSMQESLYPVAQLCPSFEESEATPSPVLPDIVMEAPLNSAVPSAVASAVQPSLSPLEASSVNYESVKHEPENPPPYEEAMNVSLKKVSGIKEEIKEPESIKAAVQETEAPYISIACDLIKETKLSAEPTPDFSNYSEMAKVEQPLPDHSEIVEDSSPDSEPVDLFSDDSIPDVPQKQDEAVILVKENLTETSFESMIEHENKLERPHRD
From the text: as §1

[11] = target: T7, Squirrel monkey NOGO (A56) plus GST tag; assay: direct ELISA on GST-NOGO-A56 from squirrel monkey, Abs490
[12] = target: T8, Marmoset NOGO (A56) plus GST tag (marmoset); assay: SPR (Biacore T100), Nogo-A orthologue amine-coupled to CM5, antibody 0.125-8 nM flowed over; mean
T8 construct: also called GST-NOGO-A56 from marmoset
T8 sequence (chain, as listed by the source limits assumed): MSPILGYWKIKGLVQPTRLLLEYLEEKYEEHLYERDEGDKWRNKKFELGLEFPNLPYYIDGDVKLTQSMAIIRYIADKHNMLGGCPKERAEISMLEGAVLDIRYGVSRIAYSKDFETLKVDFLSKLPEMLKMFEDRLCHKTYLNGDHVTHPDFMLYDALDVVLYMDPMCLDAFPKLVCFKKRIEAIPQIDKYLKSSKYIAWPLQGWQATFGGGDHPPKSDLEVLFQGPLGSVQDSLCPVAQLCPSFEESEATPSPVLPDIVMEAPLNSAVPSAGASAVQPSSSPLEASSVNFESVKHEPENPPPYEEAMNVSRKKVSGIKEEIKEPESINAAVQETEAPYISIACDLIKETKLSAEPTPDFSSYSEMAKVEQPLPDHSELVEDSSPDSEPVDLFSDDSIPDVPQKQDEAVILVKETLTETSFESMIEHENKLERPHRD
From the text: (§5) Approximately 140-180RUs of the various Nogo-A orthologues were captured to the CM5 chip by primary amine coupling. […] The values show the mean and standard deviation (in brackets) of 1-2 independent runs carried out in duplicate with each data set independently analysed prior to calculation of the mean and standard deviation.

[13] = target: T7, Squirrel monkey NOGO (A56) plus GST tag; assay: as above
From the text: as §5

[14] = target: T3, Rat NOGO (A56) plus GST tag; assay: as above
From the text: as §5

[15] = target: T4, Cynomolgus monkey NOGO (A56) plus GST …; assay: as above
From the text: as §5

[16] = target: T3, Rat NOGO (A56) plus GST tag; assay: direct ELISA on GST-NOGO-A56 from rat, Abs490
GST-human NOGO-A56 [17] = target: T5, GST-human NOGO-A56; assay: SPR (Biacore T100), human Nogo-A amine-coupled to CM5, antibody 0.125-8 nM flowed over; mean
[18] = target: T8, Marmoset NOGO (A56) plus GST tag; assay: SPR (Biacore), reverse format: antibody captured by Protein A; end of the range tied to marmoset by Table 19
From the text: as §1

GST-human NOGO-A56 [19] = target: T5, GST-human NOGO-A56; assay: SPR (Biacore) off-rate on NOGO chip, panel of H6FL CDR H3 variants with L13FL
[20] = target: T3, Rat NOGO (A56) plus GST tag; assay: SPR (Biacore), both formats
From the text: as §5
(§6) Protein A was immobilised on the surface at about 4000RUs and anti-Nogo-A antibodies were captured at approximately 300-400RUs. […] All the runs were done in duplicates.

[21] = target: T4, Cynomolgus monkey NOGO (A56) plus GST …; assay: SPR (Biacore), both formats
From the text: as §5, §6

GST-human NOGO-A56 [22] = target: T5, GST-human NOGO-A56; assay: direct ELISA, human NOGO-A (GST-human NOGO-A56) coated at 1 ug/ml, Abs490
GST-human NOGO-A56 [23] = target: T5, GST-human NOGO-A56; assay: SPR (Biacore) off-rate ranking on GST-human NOGO-A56 chip, one experiment
Method: as §3
The GST-human NOGO-A56 chip was prepared as for kinetic analysis. Cell supernatants where taken directly from transient transfections of CHO-K1 cells. These were passed directly over the sensor surface and the interaction measured. A mock transfected cell supernatant was used for double referencing to remove any artefacts due to the tissue culture media. All runs were referenced against a blanked sensor surface (one that had been activated and blocked as described earlier but had no addition of ligand). Analysis of binding was carried out using the BIAevaluation kinetic analysis software version 4.1.

Row | Binder | Kd (GST-human NOGO-A56 [7]) | Kd (GST-human NOGO-A56 [8]) | koff (GST-human NOGO-A56 [8]) | kon (GST-human NOGO-A56 [8]) | Kd (GST-human NOGO-A56 [9]) | koff (GST-human NOGO-A56 [9]) | kon (GST-human NOGO-A56 [9]) | EC50 (read off the curve) [11] | Kd [12] | Kd [13] | Kd [14] | Kd [15] | EC50 (read off the curve) [16] | Kd (GST-human NOGO-A56 [17]) | other results
1 | H28L16 (antibody, human IgG1, kappa, IgG1 (L235A, G237A) / kappa; CAMPATH-1H signal (1-19) left out; also called H28FL L16FL; NOGO H28L16) heavy: not shown light: DIVMTQSPLSNPVTLGQPVSISCRSSKSLLYKDGKTYLNWFLQRPGQSPQLLIYLMSTRASGVPDRFSGGGSGTDFTLKISRVEAEDVGVYYCQQLVEYPLTFGQGTKLEIKRTVAAPSVFIFPPSDEQLKSGTASVVCLLNNFYPREAKVQWKVDNALQSGNSQESVTEQDSKDSTYSLSSTLTLSKADYEKHKVYACEVTHQGLSSPVTKSFNRGEC | 0.64 nM | 0.678 nM | 0.00524 s⁻¹ | 7.73e+06 M⁻¹ s⁻¹ | 0.296 nM | 0.00214 s⁻¹ | 7.25e+06 M⁻¹ s⁻¹ | ~0.05 µg/mL | 0.626 nM | 0.61 nM | 0.33 nM | 0.67 nM | ~0.05 µg/mL | 0.64 nM | fold lower affinity than for human Nogo-A [1]: ~4 fold; fold lower affinity than for human Nogo-A [2]: 8.5 fold; IC50 (read off the curve) (GST-human NOGO-A56 [3]): ~4 µg/mL; IC50 (read off the curve) (GST-human NOGO-A56 [4]): ~4 µg/mL; binding result (Human C1q (Sigma, C0660)): binds; binding result [5]: binds; binding result [6]: binds; fold lower affinity than for human Nogo-A [10]: 17 fold; kon (GST-human NOGO-A56 [17]): 6.97e+06 M⁻¹ s⁻¹; fold lower affinity than for human Nogo-A [18]: 12 fold
2 | HcLc (chimera of 2A10: murine 2A10 VH and VL with human IgG constant regions) (antibody, V domains shown, also called chimeric antibody; chimeric form of the parental antibody) VH: QVQLQQPGTELVKPGASVKLSCKASGYTFTSYWMHWVKQRPGQGLEWIGNINPSNGGTNYNEKFKSKATLTVDKSSSTAYMQLSSLTSEDSAVYYCELGQGYWGQGTLVTVSS VL: DIVITQDELSNPVTSGESVSISCRSSKSLLYKDGKTYLNWFLQRPGQSPQLLIYLMSTRASGVSDRFSGSGSGTDFTLEISRVKAEDVGVYYCQQLVEYPLTFGAGTKLELKR | 1.86 nM | 1.46 nM | 0.00774 s⁻¹ | 5.08e+06 M⁻¹ s⁻¹ | 0.779 nM | 0.00249 s⁻¹ | 3.19e+06 M⁻¹ s⁻¹ | ~0.07 µg/mL | 1.42 nM | 1.54 nM | 1.12 nM | 1.68 nM | ~0.1 µg/mL | 1.86 nM | koff (GST-human NOGO-A56 [19]): 0.00558 s⁻¹; fold of the affinity for human Nogo-A [20]: ≤ 4 fold; fold of the affinity for human Nogo-A [21]: ≤ 8.5 fold; EC50 (read off the curve) (GST-human NOGO-A56 [22]): ~0.04 µg/mL; koff (GST-human NOGO-A56 [23]): 0.00266 s⁻¹
